Experimental data as given in the Human Domainome abundance scans (Beltran et al. 2025).
± gives the uncertainty stated by the source.

B1: Gamma-crystallin S, residues 96 to 176; numbered along this chain, P22914 (parent)
chain: IQIFEKGDFSGQMYETTEDCPSIMEQFHMREIHSCKVLEGVWIFYELPNYRGRQYLLDKKEYRKPIDWGAASPAVQSFRRI

Variants of: B1
Test: abundance fitness (aPCA) (normalised: wild type 0, dead -1); higher = more abundant; growth selection in yeast, the domain comes from the species named
Settings: Homo sapiens

Point of comparison: IQIFEKGDFSGQMYETTEDCPSIMEQFHMREIHSCKVLEGVWIFYELPNYRGRQYLLDKKEYRKPIDWGYASPAVQSFRRI [A70Y], abundance fitness 0.258 ± 0.19. Against it:
- IQIFEKGDFSGQMYETTEDCPSIMEQFHMREIHSCKVLEGVWIFYELPNYRGRQYLLDKKEYRKPIDWGAAMPAVQSFRRI [S72M] — lower, -0.149 ± 0.19
- IQIFEKGDFSGQMYETTEDCPSIMEQFHMREIHSCKVLEGVWIFYELPNYRGRQYLLDKKEYRKPIDWGAATPAVQSFRRI [S72T] — within error, -0.1 ± 0.33
- IQIFEKGDFSGQMYETTEDCPSIMEQFHMREIHSCKVLEGVWIFYELPNYRGRQYLLDKKEYRKPIDWGAARPAVQSFRRI [S72R] — lower, -0.154 ± 0.14
- IQIFEKGDFSGQMYETTEDCPSIMEQFHMREIHSCKVLEGVWIFYELPNYRGRQYLLDKKEYRKPIDWGAAYPAVQSFRRI [S72Y] — within error, 0.173 ± 0.21
- IQIFEKGDFSGQMYETTEDCPSIMEQFHMREIHSCKVLEGVWIFYELPNYRGRQYLLDKKEYRKPIDWGAAEPAVQSFRRI [S72E] — within error, 0.125 ± 0.35
- IQIFEKGDFSGQMYETTEDCPSIMEQFHMREIHSCKVLEGVWIFYELPNYRGRQYLLDKKEYRKPIDWGAANPAVQSFRRI [S72N] — lower, -0.204 ± 0.25
- IQIFEKGDFSGQMYETTEDCPSIMEQFHMREIHSCKVLEGVWIFYELPNYRGRQYLLDKKEYRKPIDWGAAPPAVQSFRRI [S72P] — within error, 0.069 ± 0.16
- IQIFEKGDFSGQMYETTEDCPSIMEQFHMREIHSCKVLEGVWIFYELPNYRGRQYLLDKKEYRKPIDWGAAFPAVQSFRRI [S72F] — within error, -0.066 ± 0.15
- IQIFEKGDFSGQMYETTEDCPSIMEQFHMREIHSCKVLEGVWIFYELPNYRGRQYLLDKKEYRKPIDWGAAAPAVQSFRRI [S72A] — within error, -0.016 ± 0.11
- IQIFEKGDFSGQMYETTEDCPSIMEQFHMREIHSCKVLEGVWIFYELPNYRGRQYLLDKKEYRKPIDWGAAQPAVQSFRRI [S72Q] — within error, 0.086 ± 0.25
- IQIFEKGDFSGQMYETTEDCPSIMEQFHMREIHSCKVLEGVWIFYELPNYRGRQYLLDKKEYRKPIDWGAALPAVQSFRRI [S72L] — within error, 0.002 ± 0.14
- IQIFEKGDFSGQMYETTEDCPSIMEQFHMREIHSCKVLEGVWIFYELPNYRGRQYLLDKKEYRKPIDWGAAWPAVQSFRRI [S72W] — within error, 0.007 ± 0.15
- IQIFEKGDFSGQMYETTEDCPSIMEQFHMREIHSCKVLEGVWIFYELPNYRGRQYLLDKKEYRKPIDWGAACPAVQSFRRI [S72C] — within error, -0.107 ± 0.3
- IQIFEKGDFSGQMYETTEDCPSIMEQFHMREIHSCKVLEGVWIFYELPNYRGRQYLLDKKEYRKPIDWGAADPAVQSFRRI [S72D] — within error, -0.109 ± 0.32
- IQIFEKGDFSGQMYETTEDCPSIMEQFHMREIHSCKVLEGVWIFYELPNYRGRQYLLDKKEYRKPIDWGASSPAVQSFRRI [A71S] — lower, -0.125 ± 0.12
- IQIFEKGDFSGQMYETTEDCPSIMEQFHMREIHSCKVLEGVWIFYELPNYRGRQYLLDKKEYRKPIDWGAMSPAVQSFRRI [A71M] — within error, 0.022 ± 0.13
- IQIFEKGDFSGQMYETTEDCPSIMEQFHMREIHSCKVLEGVWIFYELPNYRGRQYLLDKKEYRKPIDWGALSPAVQSFRRI [A71L] — lower, -0.223 ± 0.17
- IQIFEKGDFSGQMYETTEDCPSIMEQFHMREIHSCKVLEGVWIFYELPNYRGRQYLLDKKEYRKPIDWGAHSPAVQSFRRI [A71H] — within error, 0.052 ± 0.33
- IQIFEKGDFSGQMYETTEDCPSIMEQFHMREIHSCKVLEGVWIFYELPNYRGRQYLLDKKEYRKPIDWGAPSPAVQSFRRI [A71P] — within error, 0.128 ± 0.43
- IQIFEKGDFSGQMYETTEDCPSIMEQFHMREIHSCKVLEGVWIFYELPNYRGRQYLLDKKEYRKPIDWGACSPAVQSFRRI [A71C] — within error, -0.048 ± 0.16
- IQIFEKGDFSGQMYETTEDCPSIMEQFHMREIHSCKVLEGVWIFYELPNYRGRQYLLDKKEYRKPIDWGAGSPAVQSFRRI [A71G] — within error, 0.01 ± 0.14
- IQIFEKGDFSGQMYETTEDCPSIMEQFHMREIHSCKVLEGVWIFYELPNYRGRQYLLDKKEYRKPIDWGAKSPAVQSFRRI [A71K] — within error, 0.144 ± 0.32
- IQIFEKGDFSGQMYETTEDCPSIMEQFHMREIHSCKVLEGVWIFYELPNYRGRQYLLDKKEYRKPIDWGAESPAVQSFRRI [A71E] — within error, 0.028 ± 0.21
- IQIFEKGDFSGQMYETTEDCPSIMEQFHMREIHSCKVLEGVWIFYELPNYRGRQYLLDKKEYRKPIDWGAQSPAVQSFRRI [A71Q] — within error, -0.187 ± 0.3
- IQIFEKGDFSGQMYETTEDCPSIMEQFHMREIHSCKVLEGVWIFYELPNYRGRQYLLDKKEYRKPIDWGAWSPAVQSFRRI [A71W] — within error, 0.018 ± 0.092
- IQIFEKGDFSGQMYETTEDCPSIMEQFHMREIHSCKVLEGVWIFYELPNYRGRQYLLDKKEYRKPIDWGADSPAVQSFRRI [A71D] — within error, -0.308 ± 0.49
- IQIFEKGDFSGQMYETTEDCPSIMEQFHMREIHSCKVLEGVWIFYELPNYRGRQYLLDKKEYRKPIDWGARSPAVQSFRRI [A71R] — within error, 0.007 ± 0.087
- IQIFEKGDFSGQMYETTEDCPSIMEQFHMREIHSCKVLEGVWIFYELPNYRGRQYLLDKKEYRKPIDWGAASDAVQSFRRI [P73D] — lower, -0.23 ± 0.24
- IQIFEKGDFSGQMYETTEDCPSIMEQFHMREIHSCKVLEGVWIFYELPNYRGRQYLLDKKEYRKPIDWGAASFAVQSFRRI [P73F] — within error, 0.27 ± 0.31
- IQIFEKGDFSGQMYETTEDCPSIMEQFHMREIHSCKVLEGVWIFYELPNYRGRQYLLDKKEYRKPIDWGAASEAVQSFRRI [P73E] — lower, -0.215 ± 0.24
- IQIFEKGDFSGQMYETTEDCPSIMEQFHMREIHSCKVLEGVWIFYELPNYRGRQYLLDKKEYRKPIDWGAASGAVQSFRRI [P73G] — lower, -0.309 ± 0.16
- IQIFEKGDFSGQMYETTEDCPSIMEQFHMREIHSCKVLEGVWIFYELPNYRGRQYLLDKKEYRKPIDWGVASPAVQSFRRI [A70V] — within error, -0.003 ± 0.11
- IQIFEKGDFSGQMYETTEDCPSIMEQFHMREIHSCKVLEGVWIFYELPNYRGRQYLLDKKEYRKPIDWGWASPAVQSFRRI [A70W] — lower, -0.147 ± 0.16
